Source: patent US5200320A, “Method for identifying useful polypeptide vaccines” (National Jewish Center for Immunology and Respiratory …, priority 1987, dated 1993)
Ends that are not written are not given here.

Target: T1, IA^d (Mus musculus, UniProt P01921+P04228)
T1 sequence (P04228 24-256): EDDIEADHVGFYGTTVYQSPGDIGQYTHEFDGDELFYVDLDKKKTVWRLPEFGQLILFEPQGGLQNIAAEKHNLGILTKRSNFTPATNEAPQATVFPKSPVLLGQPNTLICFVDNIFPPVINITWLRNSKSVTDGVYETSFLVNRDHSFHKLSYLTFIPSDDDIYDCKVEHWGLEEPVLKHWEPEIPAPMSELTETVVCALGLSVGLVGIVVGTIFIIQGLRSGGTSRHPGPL
T1 sequence (P01921 28-265): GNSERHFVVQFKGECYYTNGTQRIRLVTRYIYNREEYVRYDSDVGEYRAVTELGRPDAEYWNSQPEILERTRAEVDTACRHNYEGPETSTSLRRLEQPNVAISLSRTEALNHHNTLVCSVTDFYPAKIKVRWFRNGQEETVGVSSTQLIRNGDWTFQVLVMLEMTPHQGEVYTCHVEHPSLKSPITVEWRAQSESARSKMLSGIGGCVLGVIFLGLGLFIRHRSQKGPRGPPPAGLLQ
Assay: Inhibition of binding of 125I-radiolabelled Ova 323-339 to purified IA^d (gel filtration competition assay)
Conditions: Table 7, good binders; concentration of the indicated polypeptide
Excerpt: The following examples will illustrate the method of the present invention. First, a critical binding segment of a first polypeptide that binds to a first type of MHC, was ascertained. […] This was accomplished by the method described in Sette, et al, Nature, Vol. […] No. 6129, pp. 395-399, Jul. 30, 1987, the entirety of which is incorporated herein by reference. […] For convenience, Table I of that paper illustrating the foregoing procedure, is attached as Table 2.
The effect which the substitutions indicated by an "X" in Table III, had on the binding strength of the critical binding segment listed at the top of attached Table 4, was quantitatively calculated, and a numerical designation assigned to the substituting amino acid based upon the degree of that effect. The foregoing assigned numerical designations for each "X" position indicated in Table 3, is listed at corresponding positions in Table 4. The quantitative evaluations of the binding strength were made using a competition assay as described in Sette, et al, supra, and the numerals assigned according to the decrease in the binding activity as follows:
The value of "binding" listed in Tables 6 and 7, is in micromolar concentration of the indicated polypeptide. The assay used was the same as that in Sette et al, supra, for quatitative estimation of Ia peptide interaction.
In particular, as pointed out in Sette et al., supra, T-cell recognition is much less permissive than MHC recognition. […] However, as one would expect, when the binding strength of a polypeptide to an MHC types of an individual animal is poor, little or no immunogenic response would result. However, if a polypeptide is a good binder, as ascertained by the above method, then immunogenicity would be expected to be a possibility. […] Binding to a class II MHC type IA^d and IE^d (d strain of mouse) was evaluated using the same assay technique as used to evaluate the binding for the polypeptides in Tables 6 and 7 above.

AHRVQLGPRSLQVLLIP [JF 39] and FISEAIIHVLHSR [Myo 106-118] are within 1.5-fold of each other in IC50: 25 µM for the first, 20 µM for the second.

First: HNTNGVTAACSHE [Ha 130-142]
Second: SAESLKISQAV [Ova Site II]
The IC50 of the first is 1.8-fold higher: 9 µM for the first, 5 µM for the second. The second is the more potent here.

For APYTSTLLAPELSETP [HSVD 245-260], the “BINDING (M)” value was 22/2.

Target: T1, IA^d
Assay: not given
Conditions: amount of unlabelled Ova 323-339 divided by amount of truncated peptide needed to inhibit binding of 125I Ova 323-339 to IA^d by 50%; averages of 2-4 experiments; cited from earlier work

In the case of “Ova peptide 323-331: C-terminal truncation of Ova 323-339, ending in H (KISQAVHAA; UniProt P01012 323-331, looked up, fragment)”, the “Relative I-A^d binding capacity” value is given as < 0.005.
For “Ova peptide 329-339: N-terminal truncation of Ova 323-339, starting with A (HAAHAEINEAG; UniProt P01012 329-339, looked up, fragment)”, the “Relative I-A^d binding capacity” value is listed as < 0.005.

First: Ova peptide 323-332: C-terminal truncation of Ova 323-339, ending in A (KISQAVHAAH; UniProt P01012 323-332, looked up, fragment)
Second: Ova peptide 323-333: C-terminal truncation of Ova 323-339, ending in E (KISQAVHAAHA; UniProt P01012 323-333, looked up, fragment)
The “Relative I-A^d binding capacity” value of the first is lower: 0.2 for the first, 0.6 for the second.

Going from “Ova peptide 323-335: C-terminal truncation of Ova 323-339, ending in N (KISQAVHAAHAEI; UniProt P01012 323-335, looked up, fragment)” to “Ova peptide 323-336: C-terminal truncation of Ova 323-339, ending in E (KISQAVHAAHAEIN; UniProt P01012 323-336, looked up, fragment)”, the “Relative I-A^d binding capacity” value rises from 1.0 to 1.1.

Going from “Ova peptide 325-339: N-terminal truncation of Ova 323-339, starting with Q (SQAVHAAHAEINEAG; UniProt P01012 325-339, looked up, fragment)” to “Ova peptide 326-339: N-terminal truncation of Ova 323-339, starting with A (QAVHAAHAEINEAG; UniProt P01012 326-339, looked up, fragment)”, the “Relative I-A^d binding capacity” value falls from 1.1 to 0.5.

Going from “Ova peptide 327-339: N-terminal truncation of Ova 323-339, starting with V (AVHAAHAEINEAG; UniProt P01012 327-339, looked up, fragment)” to “Ova peptide 328-339: N-terminal truncation of Ova 323-339, starting with H (VHAAHAEINEAG; UniProt P01012 328-339, looked up, fragment)”, the “Relative I-A^d binding capacity” value falls from 0.3 to 0.014.
